Results as given in article PMC11834087, “Use of polyadenosine tail mimetics to enhance mRNA expression from genes associated with haploinsufficiency disorders”.

Key:
PABPC (PABPC1 RRM1-4) [1] = biological target: T1, PABPC (PABPC1 RRM1-4) (Homo sapiens, UniProt P11940 1-370); test: EMSA; RNA 10 nM; 1x binding buffer: 100 mM NaCl, 5 mM MgCl2, 0.5 mM EDTA, 0.01% NP-40, 0.1 mg/mL BSA (from 10x stock), 5% glycerol from RNA mix plus glycerol/PBS from protein stock; pH not stated; 15 min at room temperature; 6% native gel with 0.01% Triton X-100 at 4 C; settings: protein: commercial; tags: N-terminal 6xHis-SUMO; label: 3' Cy5
T1 sequence (P11940 1-370): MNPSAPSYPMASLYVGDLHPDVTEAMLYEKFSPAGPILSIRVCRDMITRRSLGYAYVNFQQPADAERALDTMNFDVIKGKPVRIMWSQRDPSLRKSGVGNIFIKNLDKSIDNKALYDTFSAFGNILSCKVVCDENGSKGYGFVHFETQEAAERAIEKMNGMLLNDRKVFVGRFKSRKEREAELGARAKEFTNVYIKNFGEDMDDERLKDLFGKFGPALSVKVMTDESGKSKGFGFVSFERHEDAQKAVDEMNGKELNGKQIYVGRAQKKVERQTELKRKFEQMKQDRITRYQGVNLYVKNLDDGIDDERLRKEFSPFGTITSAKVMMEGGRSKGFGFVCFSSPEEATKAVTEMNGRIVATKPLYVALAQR

PABPC (PABPC1 RRM1-4) [2] = biological target: T1, PABPC (PABPC1 RRM1-4); test: EMSA; RNA 5 nM; 1x binding buffer: 100 mM NaCl, 5 mM MgCl2, 0.5 mM EDTA, 0.01% NP-40, 0.1 mg/mL BSA (from 10x stock), 5% glycerol from RNA mix plus glycerol/PBS from protein stock; pH not stated; 15 min at room temperature; 6% native gel with 0.01% Triton X-100 at 4 C; settings: protein: commercial; tags: N-terminal 6xHis-SUMO; label: 3' Cy5

Row | Binder | Kd (PABPC (PABPC1 RRM1-4) [1]) [nM] | Kd (PABPC (PABPC1 RRM1-4) [2]) [nM]
1 | AAAAAAAAAAAAAAA (ssRNA) [unmodified poly(A)15] | 110 | 
2 | AAAAAAAAAAAAAAA (XNA, 2'-O-methyl and phosphorothioate on all 15 nucleotides) [fully modified poly(A)15] |  | 85
3 | AAAAAAAAAAAAAAA (XNA, 2'-O-methyl and phosphorothioate on the first three nucleotides (mA*mA*mA*A12)) [3NT Mod poly(A)15] |  | 54
